The values that follow come from patent US20030144483A1 (Bristol-Myers Squibb, published 2003).

In experiment [1] the target is human FcγRI on cells (monocytes, IFN-γ-treated neutrophils, U937 cells) (human) (UniProt P12314). Kind of experiment: flow cytometry, FITC antibody on monocytes, average of duplicates.
For experiment [2], the target named is T1, soluble fusion protein consisting of the extracellular domain of human FcγRI and human IgM heavy chain … (human, UniProt P12314 16-292; P01871 106-453).
T1 construct: From supernatant of transiently transfected COS cells, captured on plates with goat anti-human IgM; also called FcRI/IgM fusion protein; FcγRI/IgM heavy chain fusion protein
Nature of the experiment: ELISA on captured sFcγRI-µ, in excess human IgG1 lambda.
Procedure: The binding of the antibodies to antigen was measured by ELISA. Wells of a microtitre plate (Immunlon 1, Dynatech, Chantilly, Va.) were coated with 200 ng goat anti-human IgM antibodies (Sera-lab, Crawley Down, U.K.) in 100 μl 50 mM carbonate buffer pH 9.6 at 37° C. for at least one hour. Wells were emptied and washed once with PBST and blocked with 1% BSA in PBS at room temperature for thirty minutes. The wells were emptied and washed with PBST and Cos supernatant containing FcRI/IgM fusion protein was added and incubated for one hour at room temperature. Wells were then emptied and washed three times with PBST and test antibodies diluted in 1% BSA/PBS were added and incubated for one hour at room temperature. In addition, each well contained 2 μg human IgGI, lambda antibody (Sigma, Poole, U.K.) The wells were then emptied, washed three times with PBST and 40 ng peroxidase goat anti-human kappa constant region antibodies (Sera-Lab, Crawley Down, U.K.) in 100 μl 1% BSA/PBS added to each well. After incubation for one hour at room temperature, the wells were emptied, washed three time with PBST and 10 μl HPD substrate buffer was added.
The wells of a microtiter plate were coated with goat anti-human IgM antibodies (Sera-Lab, Crawley Down, U.K.) in 50 mM bicarbonate buffer, pH 9.6. […]

T1 sequence (P12314 other isoform, or with tags, fused parts or gaps): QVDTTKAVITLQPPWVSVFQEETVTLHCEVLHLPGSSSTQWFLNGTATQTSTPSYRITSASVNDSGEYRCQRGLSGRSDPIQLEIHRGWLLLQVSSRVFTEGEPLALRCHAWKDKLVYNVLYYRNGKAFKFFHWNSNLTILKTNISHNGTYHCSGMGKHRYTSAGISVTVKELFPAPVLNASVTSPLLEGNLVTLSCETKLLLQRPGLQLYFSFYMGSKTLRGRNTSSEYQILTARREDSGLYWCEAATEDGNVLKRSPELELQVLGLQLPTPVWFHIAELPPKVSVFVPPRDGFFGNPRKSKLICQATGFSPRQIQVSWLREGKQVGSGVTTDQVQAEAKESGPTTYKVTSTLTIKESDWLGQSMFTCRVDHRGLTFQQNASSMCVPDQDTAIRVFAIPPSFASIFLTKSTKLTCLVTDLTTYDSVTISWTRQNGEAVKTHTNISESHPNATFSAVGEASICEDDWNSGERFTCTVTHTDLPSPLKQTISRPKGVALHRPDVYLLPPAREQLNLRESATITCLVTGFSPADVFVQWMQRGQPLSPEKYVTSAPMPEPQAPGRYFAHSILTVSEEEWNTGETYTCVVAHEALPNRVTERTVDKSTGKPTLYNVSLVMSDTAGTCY
Chain of human FcγRI on cells (monocytes, IFN-γ-treated neutrophils, U937 cells) (human) (P12314 16-374): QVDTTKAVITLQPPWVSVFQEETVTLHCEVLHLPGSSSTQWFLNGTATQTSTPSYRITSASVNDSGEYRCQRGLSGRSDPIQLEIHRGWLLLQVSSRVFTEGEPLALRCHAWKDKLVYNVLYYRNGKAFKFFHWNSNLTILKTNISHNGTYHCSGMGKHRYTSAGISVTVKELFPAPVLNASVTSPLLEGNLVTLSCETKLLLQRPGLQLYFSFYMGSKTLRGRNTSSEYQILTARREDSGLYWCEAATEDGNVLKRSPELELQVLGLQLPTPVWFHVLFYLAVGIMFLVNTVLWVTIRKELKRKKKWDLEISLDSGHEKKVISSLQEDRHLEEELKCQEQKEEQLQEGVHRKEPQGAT

The molecule “humanized mAb 22, KOL VH/REI Vκ mAb, designated H22 (antibody)” showed an antibody sites per cell (monocytes) (antibody sites per cell) in experiment [1] of 10500.

B1: humanized NEWM VH/REI Vκ mAb (antibody, human IgG1, V domains shown)
VH: QVQLQESGPGLVRPSQTLSLTCTVSGFIFSDNYMYWVRQPPGRGLEWIGTISDGGSYTYYPDSVKGRVTMLRDTSKNQFSLRLSSVTAADTAVYYCARGYYRYEGAMDYWGQGSLVTVSS
VL: DIQLTQSPSSLSASVGDRVTITCKSSQSVLYSSNQKNYLAWYQQKPGKAPKLLIYWASTRESGVPSRFSGSGSGTDFTFTISSLQPEDIATYYCHQYLSSWTFGQGTKVEIK
notes: Human IgG1 and human kappa constant regions; also called NEWM/REI based antibody; NMVK/HuVK
As for B1, the “fold lower affinity than the chimeric mAb” value in experiment [2] was roughly 5 fold.
